Source: publication PMC6650474

Biological target: Skeletal muscle actin (chicken) (UniProt P68139)

Mouse utrophin residues 1-H416 with C-terminal biotin and FLAG tags (from UniProt E9Q6R7 1-416) (domain or fragment)
KS of the utrophin-based loaded in vitro motility assay (utrophin concentration that arrests motion), with PfMyoA K764E on the surface, 30 °C: 3.04 nM | KS of the utrophin-based loaded in vitro motility assay (utrophin concentration that arrests motion), with PfMyoA S19A on the surface, 30 °C: 2.42 nM | KS of the utrophin-based loaded in vitro motility assay (utrophin concentration that arrests motion), with PfMyoA WT on the surface, 30 °C: 1.4 nM | KS of the utrophin-based loaded in vitro motility assay (utrophin concentration that arrests motion), with PfMyoA ∆N on the surface, 30 °C: 10.8 nM
